{"source": "paper PMC9699676", "about": "“Host nucleases generate prespacers for primed adaptation in the E. coli type I-E CRISPR-Cas system”", "key": {"Cas1;Cas2 [1]": {"biological_target": "T1, Cas1;Cas2 (Escherichia coli;Escherichia coli, UniProt Q46896;P45956 1-305;1-94, |)", "T1 sequence 1": "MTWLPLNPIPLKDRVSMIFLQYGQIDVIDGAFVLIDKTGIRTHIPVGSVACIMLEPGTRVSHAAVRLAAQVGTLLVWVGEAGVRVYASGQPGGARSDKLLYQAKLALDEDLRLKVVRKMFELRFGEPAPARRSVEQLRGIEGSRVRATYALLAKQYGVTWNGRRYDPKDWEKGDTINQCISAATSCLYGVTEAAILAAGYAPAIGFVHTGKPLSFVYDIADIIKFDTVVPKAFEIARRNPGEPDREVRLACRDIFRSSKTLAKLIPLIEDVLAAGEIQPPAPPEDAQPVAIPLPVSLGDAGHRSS", "T1 sequence 2": "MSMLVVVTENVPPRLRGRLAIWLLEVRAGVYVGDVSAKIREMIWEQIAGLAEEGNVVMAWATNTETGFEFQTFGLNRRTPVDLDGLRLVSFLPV", "assay": "exonuclease footprinting; RecJ with RecBC or RecBCD, 1 mM ATP; 33-nt product; 40 mM Tris-HCl pH 7.5, 50 mM NaCl, 10 mM MgCl2, 0.5 mM TCEP, 0.1 mg/ml BSA; EMSA (Fig. S9) 25 nM DNA, 2 uM Cas1-Cas2, 37 C 30 min; footprinting 0.2 uM DNA, 1.6", "conditions": "protein: recombinant;recombinant; tags: ;; chain copies: 4;2; label: 3'-FAM on strand 1; fork; 23-bp duplex; extended 5' arm annealed to strand 3 as 15-bp blunt duplex"}, "Cas1;Cas2 [2]": {"biological_target": "T1, Cas1;Cas2", "assay": "EMSA; preannealed; reference for substrate 10; 40 mM Tris-HCl pH 7.5, 50 mM NaCl, 10 mM MgCl2, 0.5 mM TCEP, 0.1 mg/ml BSA; EMSA (Fig. S9) 25 nM DNA, 2 uM Cas1-Cas2, 37 C 30 min; footprinting 0.2 uM DNA, 1.6", "conditions": "protein: recombinant;recombinant; tags: ;; chain copies: 4;2; label: 5'-32P on strand 1; 23-bp duplex, 3' overhang 5 nt on each end"}, "Cas1;Cas2 [3]": {"biological_target": "T1, Cas1;Cas2", "assay": "EMSA; preannealed; 40 mM Tris-HCl pH 7.5, 50 mM NaCl, 10 mM MgCl2, 0.5 mM TCEP, 0.1 mg/ml BSA; EMSA (Fig. S9) 25 nM DNA, 2 uM Cas1-Cas2, 37 C 30 min; footprinting 0.2 uM DNA, 1.6", "conditions": "protein: recombinant;recombinant; tags: ;; chain copies: 4;2; label: 5'-32P on strand 1; 28-bp duplex, single 3' overhang 5 nt"}, "Cas1;Cas2 [4]": {"biological_target": "T1, Cas1;Cas2", "assay": "EMSA; preannealed; longer overhang stimulated binding; 40 mM Tris-HCl pH 7.5, 50 mM NaCl, 10 mM MgCl2, 0.5 mM TCEP, 0.1 mg/ml BSA; EMSA (Fig. S9) 25 nM DNA, 2 uM Cas1-Cas2, 37 C 30 min; footprinting 0.2 uM DNA, 1.6", "conditions": "protein: recombinant;recombinant, tags: ;, chain copies: 4;2, label: 5'-32P on strand 1, 28-bp duplex"}, "Cas1;Cas2 [5]": {"biological_target": "T1, Cas1;Cas2", "assay": "EMSA; strands added separately; 40 mM Tris-HCl pH 7.5, 50 mM NaCl, 10 mM MgCl2, 0.5 mM TCEP, 0.1 mg/ml BSA; EMSA (Fig. S9) 25 nM DNA, 2 uM Cas1-Cas2, 37 C 30 min; footprinting 0.2 uM DNA, 1.6", "conditions": "protein: recombinant;recombinant, tags: ;, chain copies: 4;2, label: 5'-32P on strand 1, 33-bp duplex"}}, "data": [{"binder": "double fork with 15-bp blunt end (Fig. 4B, S7) (dsDNA) DNA 1: CCGCCTTAACCGGTCAACCTAAACATTTACCGCGCGATCGGGTGTTTGGTGA DNA 2: CACAAAAACACCCGATCGCGCGGTAAATTGGGCTTGG DNA 3: GACCGGTTAAGGCGG", "values": [{"measurement": "binding result", "setting": "Cas1;Cas2 [1]", "value": "binds"}]}, {"binder": "substrate 2 (dsDNA) DNA 1: ATTTACTACTCGTTCTGGTGTTTCTCGT DNA 2: AAACACCAGAACGAGTAGTAAATTGGGC", "values": [{"measurement": "binding result", "setting": "Cas1;Cas2 [2]", "value": "binds"}]}, {"binder": "substrate 3 (dsDNA) DNA 1: ATTTACTACTCGTTCTGGTGTTTCTCGT DNA 2: ACGAGAAACACCAGAACGAGTAGTAAATTGGGC", "values": [{"measurement": "binding result", "setting": "Cas1;Cas2 [3]", "value": "binds"}]}, {"binder": "substrate 4 (dsDNA) DNA 1: ATTTACTACTCGTTCTGGTGTTTCTCGT DNA 2: ACGAGAAACACCAGAACGAGTAGTAAATTGGGCTT", "values": [{"measurement": "binding result", "setting": "Cas1;Cas2 [4]; single 3' overhang 7 nt with PAM", "value": "binds"}]}, {"binder": "substrate 10 (33/37) (dsDNA) DNA 1: GCCCAATTTACTACTCGTTCTGGTGTTTCTCGT DNA 2: ACGAGAAACACCAGAACGAGTAGTAAATTGGGCTTGA", "values": [{"measurement": "binding signal", "setting": "Cas1;Cas2 [5]; single 3' overhang 4 nt with PAM", "value": "18 fold more than preannealed"}]}, {"binder": "substrate 9 (33/35) (dsDNA) DNA 1: GCCCAATTTACTACTCGTTCTGGTGTTTCTCGT DNA 2: ACGAGAAACACCAGAACGAGTAGTAAATTGGGCTT", "values": [{"measurement": "binding signal", "setting": "Cas1;Cas2 [5]; single 3' overhang 2 nt with PAM", "value": "5 fold more than preannealed"}]}, {"binder": "substrate 5 (dsDNA) DNA 1: ATTTACTACTCGTTCTGGTGTTTCTCGT DNA 2: ACGAGAAACACCAGAACGAGTAGTAAATTGGGCTTGA", "values": [{"measurement": "binding result", "setting": "Cas1;Cas2 [4]; single 3' overhang 9 nt with PAM", "value": "binds"}]}]}
